In patent US20240398767A1, “INHIBITORS OF THE MTDH-SND1 PROTEIN COMPLEX FOR CANCER THERAPY” (The Trustees of Princeton University, priority 2021, published 2024):

T1: MTDH-SND1 interaction (Homo sapiens, UniProt Q7KZF4)
T1 construct: endogenous in cells; host or cells: SCP28 cells (lysate)
T1 sequence (Q7KZF4 2-910 limits assumed): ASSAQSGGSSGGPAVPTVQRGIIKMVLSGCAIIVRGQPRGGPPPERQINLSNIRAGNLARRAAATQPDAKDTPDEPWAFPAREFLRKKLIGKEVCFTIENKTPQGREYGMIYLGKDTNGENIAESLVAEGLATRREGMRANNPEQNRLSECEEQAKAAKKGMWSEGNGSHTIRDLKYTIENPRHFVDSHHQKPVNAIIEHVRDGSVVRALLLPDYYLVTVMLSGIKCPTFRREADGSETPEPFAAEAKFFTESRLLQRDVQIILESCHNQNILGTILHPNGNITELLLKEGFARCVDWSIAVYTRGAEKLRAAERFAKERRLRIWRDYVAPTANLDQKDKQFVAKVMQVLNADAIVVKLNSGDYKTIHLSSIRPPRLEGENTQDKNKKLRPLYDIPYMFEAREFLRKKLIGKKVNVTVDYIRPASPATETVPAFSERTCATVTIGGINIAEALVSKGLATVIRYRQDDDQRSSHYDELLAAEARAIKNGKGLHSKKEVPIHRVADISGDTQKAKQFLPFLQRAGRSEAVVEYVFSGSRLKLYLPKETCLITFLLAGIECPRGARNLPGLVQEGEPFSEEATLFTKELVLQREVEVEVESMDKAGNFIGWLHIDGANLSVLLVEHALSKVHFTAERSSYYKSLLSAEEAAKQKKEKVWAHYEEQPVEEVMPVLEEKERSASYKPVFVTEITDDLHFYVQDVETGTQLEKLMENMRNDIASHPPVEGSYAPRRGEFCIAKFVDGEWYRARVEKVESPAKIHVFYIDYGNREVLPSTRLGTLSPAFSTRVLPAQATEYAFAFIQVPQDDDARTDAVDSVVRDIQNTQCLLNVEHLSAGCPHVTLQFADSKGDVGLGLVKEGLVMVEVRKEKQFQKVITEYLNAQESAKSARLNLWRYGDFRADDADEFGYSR

T2: SND1 (endogenous, SCP28 breast cancer cell lysate) (human, UniProt Q7KZF4 2-910)
T2 construct: Detected by Western blot after MTDH immunoprecipitation; also called Staphylococcal nuclease domain-containing 1
T2 sequence (looked up): T1 sequence (Q7KZF4 2-910 limits assumed)

T3: SND1-NLuc (human)
T3 construct: Expressed in HEK293T cells and used as cell lysate; also called Myc-SND1-NLuc; split-luc component
T3 chain: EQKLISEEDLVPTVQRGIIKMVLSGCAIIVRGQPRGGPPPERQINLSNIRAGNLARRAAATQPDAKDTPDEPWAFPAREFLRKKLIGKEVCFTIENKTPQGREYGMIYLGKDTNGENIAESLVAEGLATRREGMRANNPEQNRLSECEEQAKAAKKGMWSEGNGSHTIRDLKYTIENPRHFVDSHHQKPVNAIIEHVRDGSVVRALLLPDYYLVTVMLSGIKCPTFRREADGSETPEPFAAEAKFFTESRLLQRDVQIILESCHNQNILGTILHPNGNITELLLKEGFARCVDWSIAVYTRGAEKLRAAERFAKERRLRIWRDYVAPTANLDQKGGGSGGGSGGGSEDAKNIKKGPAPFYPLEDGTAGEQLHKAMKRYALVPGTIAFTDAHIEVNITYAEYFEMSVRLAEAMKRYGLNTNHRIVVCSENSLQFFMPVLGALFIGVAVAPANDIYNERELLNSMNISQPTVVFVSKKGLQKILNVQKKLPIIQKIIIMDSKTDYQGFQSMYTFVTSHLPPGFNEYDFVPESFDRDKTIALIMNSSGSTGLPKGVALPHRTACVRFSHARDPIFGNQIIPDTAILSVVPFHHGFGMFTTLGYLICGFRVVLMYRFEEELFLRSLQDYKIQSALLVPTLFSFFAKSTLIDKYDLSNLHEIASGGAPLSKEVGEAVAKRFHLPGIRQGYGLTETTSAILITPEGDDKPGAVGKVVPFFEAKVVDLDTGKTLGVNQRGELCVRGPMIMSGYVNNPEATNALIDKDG

T4: SND1-NLuc
T4 chain: T3 chain


Key:
MTDH-SND1 interaction [1] = target: T5, MTDH-SND1 interaction (Homo sapiens, UniProt Q7KZF4); assay: Cell-free split-luciferase (Split-luc) assay, SND1-NLuc + CLuc-MTDH; assay type: biochemical; conditions: 50 μM peptide
T5 construct: made in house; host or cells: HEK293T cells, transient transfection of pcDNA3.1 plasmids; crude cleared lysates, each fusion expressed separately and the lysates pre-mixed
Source text: To generate a luciferase-based screening system, firefly luciferase was split into N- and C-terminals according to previous studies^21-23. Both N- and C-terminal domains alone have almost undetectable luciferase activity (FIG. 10A). Next, the two fragments were fused to SND1 and MTDH interaction domains respectively to generate SND1-NLuc and CLuc-MTDH (Split-luc) (FIG. 10A, left, and Table 3). […] However, when SND1-NLuc+CLuc-MTDH were co-expressed, N- and C-terminal domains of the luciferase fragments were brought close to each other due to the interaction between SND1 and MTDH, and substantial luciferase activity was reconstituted (FIG. 3A, left and FIG. 10A).
(§1) Luciferase-based screening. Seed HEK293T cells on 3×15 cm dish at 18-24 hr before transfection with 7-8×10^6 cells per dish targeting 70-80% confluence when start transfection. 20 μg of pCDNA3.1-SND1-NLuc, pCDNA3.1-CLuc-MTDH, or 2 μg of pCDNA3.1-NLuc-CLuc plasmids that described above were transfected to each dish. 72 hr after transfection the cells were lysed with 5 ml of luciferase lysis buffer (2 mM EDTA, 20 mM DTT, 10% glycerol, 1% Triton X-100, 25 mM Tris base, adjusted to pH7.8 with H3PO4) at 4° C. for 20 min. The protein lysates were centrifuged at 13,000 rpm for 10 min, and the supernatant were collected.
For small chemical compound screening, white, flat-bottom, solid 384-well plates were used. Compounds were added into each well as 0.1 μl of 10 mM DMSO solution (or same amount of DMSO, serve as control). The first and last columns were free, and MTDH wild type (PNSDWNAPAEEWGNW) or mutant (PNSDANAPAEEAGNW) peptides were added as positive and negative controls right before screening. Same amount of MTDH-CLuc and SND1-NLuc were pre-mixed at 4° C. for 30 min to generate split-luc. 5 μl of split- or linked-luc was added into each well. 15 μl of luciferase assay buffer (25 mM Glycylglycine pH 7.8, 15 mM K3PO4 pH 7.8, 15 mM MgSO4, 4 mM EGTA, 2 mM ATP added just before use, 10 mM DTT added just before use and 1 mM D-Luciferin added just before use) was then added into each well to get a 20 μl reaction system with 50 μM of compounds (peptides) in each well. The plates were incubated at 4° C. for 1 hr and luciferase activity at each well was measured.
The inhibitory efficiency of each compound was calculated as following: (signal at DMSO well−signal at compound well)/signal at DMSO well. MTDH wild type or mutant peptide in each plate was served as positive and negative controls to monitor the data quality of each plate.

[2] = target: T6, Linked-luc (NLuc and CLuc of firefly luciferase fused together) (Photinus pyralis, UniProt P08659, INS416[…]); assay: Linked-luciferase (Linked-luc) counter screen, cell free; assay type: biochemical; conditions: 50 μM peptide
T6 construct: made in house; host or cells: HEK293T cells, transient transfection of pcDNA3.1-NLuc-CLuc; crude cleared lysate
Source text: The interaction between SND1-NLuc and CLuc-MTDH was also validated with co-immunoprecipitation (Co-IP) experiments (FIG. 10B). In the presence of the compounds (inhibitors) that block MTDH-SND1 interaction, the reconstitution of luciferase activity was expected to be reduced (FIG. 3A). Meanwhile, considering the possibility that compounds capable of directly inhibiting the enzymatic activity of luciferase could also result in lower luciferase signal without any blocking effect on MTDH-SND1 interaction, Linked-luc that directly fuse NLuc and CLuc together was generated to be used in counter screening (FIG. 3A, right, and Table 3).
as §1, with “The protein lysates were centrifuged at 13,000 rpm for 10 min, and the supernatant were collected.” left out
For small chemical compound screening, white, flat-bottom, solid 384-well plates were used. […] The plates were incubated at 4° C. for 1 hr and luciferase activity at each well was measured.

MTDH-SND1 interaction [3] = target: T1, MTDH-SND1 interaction; assay: Co-immunoprecipitation (Co-IP) in SCP28 lysates with anti-MTDH antibody, Western blot for SND1; assay type: binding; conditions: 500 μM, SCP28 lysate
Method: FIG. 3F, SCP28 cells grown confluent in each 10-cm dish were lysed with 1 ml IP lysis buffer. 500 μM of the compounds were added into each 1 ml of the samples and IP lysis buffer with 2 μg of anti-MTDH antibody. Western blot was then performed to detect SND1 that binds to MTDH.
(§2) FIG. 10E, Schematic diagram of Co-IP based confirmation of MTDH-SND1 inhibitory compounds (left). SCP28 cells were lysed for IP assay.2 μg of MTDH antibody together with 500 μM of MTDH wild type (Pep-WT) or mutant (Pep-MT) peptides were added into each 1 ml of samples. Red star indicates wild type MTDH peptide competing off SND1 that binds to MTDH.
(§3) Co-immunoprecipitation assay (Co-IP), which is a commonly used standard test to determine protein-protein interaction, was next employed to validate the candidates. Lysates of breast cancer cell line SCP28, a single cell-derived subline from the MDA-MB-231 TNBC cell line^25, was immunoprecipitated with anti-MTDH antibody alone or together with inhibitors (FIG. 3F and FIG. 10E). The samples were then incubated with Protein-A/G beads to pull down MTDH, followed by Western blot analysis to detect SND1. […] Using multiple screening and validation platforms, two classes of compounds, C26s and C32s, were obtained that inhibit MTDH-SND1 interaction.
Immunoprecipitation (IP) and western blotting (WB) analysis. For IP experiment, samples were prepared as previously described^32. 100 μl of the supernatant was transferred to a new tube as input, and the rest was incubated with 2 μg of IgG, anti-Myc (Santa Cruz, SC-40), or anti-MTDH (ThermoFisher, 40-6500) (as indicated in each experiment) overnight at 4° C. (small chemical compounds may be added at this step as indicated in each experiment). The rest standard IP procedures were performed as previously noted^32. […]

[4] = target: T2, SND1 (endogenous, SCP28 breast cancer …); assay: Co-IP competition, SCP28 lysate, anti-MTDH antibody, Western blot for SND1
Method: as §2
as §3, with “line²⁵,” for “line^25,”, “SND1. In such co-TP experiment, MTDH-WT but not MTDH-MT peptide blocks MTDH-SND1 interaction (FIG. 10E).” for “SND1.”

SND1-NLuc [5] = target: T3, SND1-NLuc; assay: split-luciferase competition assay, 50 µM peptide, competitor of CLuc-MTDH
Method: as §1, with “7-8×10⁶” for “7-8×10^6”, “H₃PO₄)” for “H3PO4)”
For small chemical compound screening, white, flat-bottom, solid 384-well plates were used. Compounds were added into each well as 0.1 μl of 10 mM DMSO solution (or same amount of DMSO, serve as control). The first and last columns were free, and MTDH wild type ([…]) or mutant ([…]) peptides were added as positive and negative controls right before screening. Same amount of MTDH-CLuc and SND1-NLuc were pre-mixed at 4° C. for 30 min to generate split-luc. 5 μl of split- or linked-luc was added into each well. […] The plates were incubated at 4° C. for 1 hr and luciferase activity at each well was measured.

SND1-NLuc [6] = target: T4, SND1-NLuc; assay: split-luciferase assay (inhibition of SND1-NLuc/CLuc-MTDH interaction)

T6 sequence (P08659 with tags, fused parts or gaps INS416[withheld]): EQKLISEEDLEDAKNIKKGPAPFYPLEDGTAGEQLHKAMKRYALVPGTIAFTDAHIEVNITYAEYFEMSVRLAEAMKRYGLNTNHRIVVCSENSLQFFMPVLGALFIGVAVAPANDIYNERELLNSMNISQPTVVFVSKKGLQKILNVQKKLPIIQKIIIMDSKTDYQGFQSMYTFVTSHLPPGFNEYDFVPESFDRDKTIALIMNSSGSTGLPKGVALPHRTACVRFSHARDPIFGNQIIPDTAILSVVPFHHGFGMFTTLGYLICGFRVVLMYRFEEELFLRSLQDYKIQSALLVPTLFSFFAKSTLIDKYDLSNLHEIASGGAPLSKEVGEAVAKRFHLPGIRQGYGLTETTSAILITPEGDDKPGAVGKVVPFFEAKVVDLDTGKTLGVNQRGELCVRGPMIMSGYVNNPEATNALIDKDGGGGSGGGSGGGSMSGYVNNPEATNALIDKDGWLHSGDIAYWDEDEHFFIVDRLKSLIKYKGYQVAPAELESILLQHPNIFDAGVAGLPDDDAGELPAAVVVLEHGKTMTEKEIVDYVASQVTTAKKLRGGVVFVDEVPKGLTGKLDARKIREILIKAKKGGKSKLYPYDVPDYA

| Molecule | split-luc activity (MTDH-SND1 interaction [1]) | linked-luc activity [2] | MTDH-SND1 interaction (SND1 that binds to MTDH, Co-IP) (MTDH-SND1 interaction [3]) | binding result [4] | binding result (SND1-NLuc [5]) | IC50 (SND1-NLuc [6]) |
| --- | --- | --- | --- | --- | --- | --- |
| PNSDWNAPAEEWGNW [MTDH-WT, reference compound] | significantly inhibited split-luc activity | not affected | blocks MTDH-SND1 interaction | – | – | – |
| PNSDWNAPAEEWGNW (also called MTDH-WT peptide; Pep-WT) [wild type MTDH (MTDH-WT) minimal peptide] | – | – | – | binds | binds | 1200 nM |
